In US10370653B2, “Micro-screening apparatus, process, and products” (priority 2015, dated 2019):

Tests used:
[1] = target: fluorescently labeled phosphate-binding protein (PBP) from E. coli (Life Technologies, PV4406) (Escherichia coli, UniProt P0AG82, A222C); settings: inorganic phosphate ([Pi]); two-state binding isotherm; TrisHCl pH 7.6
Description: Briefly, 100 μL of each sample was mixed with 100 μL of 1 μM PBP in Phosphate Sensor Detection Buffer (20 mM TrisHCl pH 7.6, 0.05% Triton X-100), and fluorescence of the mixture was immediately read out at an excitation/emission of 430/450 nm on a Biotek SYNERGY™ H4 plate reader spectrophotometer. When measuring phosphate content in the AP Reaction Buffer, the buffer was diluted 1:20 in water prior to incubation with the sensor in order to minimize interference from the concentrated MOPS and salt solutions on the PBP binding thermodynamics. PBP stocks were stored as 10 μM aliquots in Phosphate Sensor Storage Buffer (10 mM TrisHCl pH 7.6, 50 mM NaCl) at −80° C. and individually thawed prior to use. […] Error bars reflect the standard deviation over three measurements.

[2] = test system: CC1(C)C2=C(Cl)C(=O)C(Cl)=CC2=Nc2ccc(OP(=O)(O)O)cc21; assay: Michaelis-Menten kinetics of yeast-displayed AP with DDAOP; assay type: biochemical, E. coli; settings: other: substrate DDAOP, yeast display, pH 8.0
Excerpt: (§1) Preparation of alkaline phosphatase protein constructs.
(§2) Analysis of alkaline phosphate activity.
For kinetic measurements on the μSCALE platform, a series of images were acquired at set intervals with 600/60 nm excitation/655 nm long pass emission filters to generate single-cell reaction time courses for each cavity in the array. […] Error bars reflect the standard deviation across all cavities in each spot and were used to fit a calibration line using weighted least squares. In both cases, the linear regime of each kinetic time series was used to estimate reaction rates.
(§3) Alkaline phosphatase was used as a model system.

[3] = test system: CC1(C)C2=C(Cl)C(=O)C(Cl)=CC2=Nc2ccc(OP(=O)(O)O)cc21; assay: Michaelis-Menten kinetics of purified AP with DDAOP; assay type: biochemical, E. coli; settings: other: substrate DDAOP, purified protein, pH 8.0
Excerpt: as §1, §2, §3

fluorescently labeled phosphate-binding protein (PBP) from E. coli (Life Technologies, PV4406), sequence (P0AG82 26-346 A222C): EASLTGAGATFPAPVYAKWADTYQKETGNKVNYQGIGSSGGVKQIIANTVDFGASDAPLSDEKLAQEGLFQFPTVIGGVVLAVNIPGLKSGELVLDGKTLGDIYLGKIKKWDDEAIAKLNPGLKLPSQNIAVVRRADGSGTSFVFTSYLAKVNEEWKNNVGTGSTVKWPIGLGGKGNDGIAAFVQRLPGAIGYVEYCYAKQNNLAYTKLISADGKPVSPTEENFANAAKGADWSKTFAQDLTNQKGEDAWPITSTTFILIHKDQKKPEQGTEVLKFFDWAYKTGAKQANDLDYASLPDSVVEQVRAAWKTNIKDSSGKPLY

O=P(O)(O)O [inorganic phosphate]
Kd [1]: 940 nM

E. coli alkaline phosphatase (AP) variant R166S, yeast-displayed (Escherichia coli K-12; R188S)
Km [2]: 55 ± 7 µM

E. coli alkaline phosphatase (AP) variant R166S, purified protein (Escherichia coli K-12; R188S)
Km [3]: 51 ± 4 µM
kcat [3]: 0.7 ± 0.2 s⁻¹
kcat/Km [3]: (1.4 +/− 0.4) × 10^4 M^-1 s^-1

E. coli alkaline phosphatase (AP), wild type (WT), GENBANK Accession Number M13345, yeast-displayed (Escherichia coli K-12)
Km [2]: 4.3 ± 0.4 µM

E. coli alkaline phosphatase (AP), wild type (WT), GENBANK Accession Number M13345, purified protein (Escherichia coli K-12)
Km ([3]; 50 pM): 4.1 ± 0.1 µM
kcat ([3]; 50 pM): 15.7 ± 0.2 s⁻¹
kcat/Km ([3]; 50 pM): (3.8 +/− 0.1) × 10^6 M^-1 s^-1
